In EP4707304A1 (Axcynsis Therapeutics Pte. Ltd., dated 2024):
Substitutions are numbered along the chain they refer to. In names and notes the source's numbering stands.

T1: VLP-hCLDN6 (human, UniProt P56747 1-220)
T1 construct: also called VLP-CLDN6; AT-003-ag1
T1 sequence: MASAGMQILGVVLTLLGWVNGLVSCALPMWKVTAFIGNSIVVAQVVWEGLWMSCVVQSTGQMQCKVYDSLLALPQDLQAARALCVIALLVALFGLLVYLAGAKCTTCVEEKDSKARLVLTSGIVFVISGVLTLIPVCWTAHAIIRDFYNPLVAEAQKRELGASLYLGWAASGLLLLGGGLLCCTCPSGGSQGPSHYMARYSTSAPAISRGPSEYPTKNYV

T2: VLP-hCLDN6 (human) (UniProt P56747)
T2 sequence: T1 sequence

B1: humanized antibody hAb-29 (antibody, V domains shown)
VH: EVKLVESGGGLVKPGGSLRLSCAASGFTFNDYTMSWVRQTPAKRLEWVVTISSGGGRTYYPDSVKGRFTISRDNAKNTLYLQMSSLRAEDTAVYYCIRGDYRYDGFAYWGQGTLVTVSS
VL: DIQMTQSPSSLSASVGDRVTITCRASENIDSYLAWYQQKPGKSPQLLVYASTLLVDGVPSRFSGSRSGTQFSLTISSLQPEDVARYYCQHYYSIPYTFGSGTKLEIK
notes: also called VH2VL4 with HC S31D
B2: humanized antibody hAb-30 (antibody, V domains shown)
VH: B1 VH with D31E
VL: B1 VL
notes: also called VH2VL4 with HC S31E
B3: humanized antibody hAb-33 (antibody, V domains shown)
VH: B1 VH with D31S, G105A
VL: B1 VL
notes: also called VH2VL4 with HC G100A
B4: humanized antibody hAb-27 (antibody, V domains shown)
VH: B1 VH with D31M
VL: B1 VL
notes: also called VH2VL4 with HC S31M
B5: humanized antibody hAb-28 (antibody, V domains shown)
VH: B1 VH with D31Q
VL: B1 VL
notes: also called VH2VL4 with HC S31Q
B6: humanized antibody hAb-26 (antibody, V domains shown)
VH: B1 VH with D31Y
VL: B1 VL
notes: also called VH2VL4 with HC S31Y
B7: humanized antibody hAb-34 (antibody, V domains shown)
VH: B1 VH with G105A
VL: B1 VL
notes: also called VH2VL4 with HC S31D/G100A
B8: humanized antibody hAb-6 (antibody, V domains shown)
VH: B1 VH with D31S, T40A, A42G
VL: B1 VL with V55Q, Q70D, S72T, R85T
B9: humanized antibody hAb-19 (antibody, V domains shown)
VH: B1 VH with K13Q, D31S
VL: B1 VL with V55Q, S72T
B10: humanized antibody hAb-21 (antibody, V domains shown)
VH: B1 VH with K13Q, D31S
VL: B1 VL
B11: humanized antibody hAb-23 (antibody, V domains shown)
VH: B1 VH with D31S, K76R
VL: B1 VL with V55Q, S72T
B12: humanized antibody hAb-7 (antibody, V domains shown)
VH: B1 VH with D31S, T40A, A42G
VL: B1 VL with V55Q, S72T
B13: humanized antibody hAb-17 (antibody, V domains shown)
VH: B1 VH with K13Q, D31S, T40A, A42G
VL: B1 VL
B14: humanized antibody hAb-25 (antibody, V domains shown)
VH: B1 VH with D31S, K76R
VL: B1 VL
B15: humanized antibody hAb-13 (antibody, V domains shown)
VH: B1 VH with D31S
VL: B1 VL
B16: humanized antibody hAb-14 (antibody, V domains shown)
VH: B1 VH with K13Q, D31S, T40A, A42G
VL: B1 VL with V55Q, Q70D, S72T, R85T
B17: humanized antibody hAb-9 (antibody, V domains shown)
VH: B1 VH with D31S, T40A, A42G
VL: B1 VL
B18: humanized antibody hAb-16 (antibody, V domains shown)
VH: B1 VH with K13Q, D31S, T40A, A42G
VL: B1 VL with V55Q, S72T, V83F, R85T
B19: humanized antibody hAb-24 (antibody, V domains shown)
VH: B1 VH with D31S, K76R
VL: B1 VL with V55Q, S72T, V83F, R85T
B20: humanized antibody hAb-10 (antibody, V domains shown)
VH: B1 VH with D31S
VL: B1 VL with V55Q, Q70D, S72T, R85T
B21: humanized antibody hAb-12 (antibody, V domains shown)
VH: B1 VH with D31S
VL: B1 VL with V55Q, S72T, V83F, R85T
B22: humanized antibody hAb-11 (antibody, V domains shown)
VH: B1 VH with D31S
VL: B1 VL with V55Q, S72T
B23: humanized antibody hAb-20 (antibody, V domains shown)
VH: B1 VH with K13Q, D31S
VL: B1 VL with V55Q, S72T, V83F, R85T
B24: humanized antibody hAb-22 (antibody, V domains shown)
VH: B1 VH with D31S, K76R
VL: B1 VL with V55Q, Q70D, S72T, R85T
B25: humanized antibody hAb-15 (antibody, V domains shown)
VH: B1 VH with K13Q, D31S, T40A, A42G
VL: B1 VL with V55Q, S72T
B26: humanized antibody hAb-8 (antibody, V domains shown)
VH: B1 VH with D31S, T40A, A42G
VL: B1 VL with V55Q, S72T, V83F, R85T
B27: humanized antibody hAb-18 (antibody, V domains shown)
VH: B1 VH with K13Q, D31S
VL: B1 VL with V55Q, Q70D, S72T, R85T

Target: T1, VLP-hCLDN6
Assay: ELISA on coated VLP-hCLDN6

Binder	EC50
B1	0.29 nM
B2	0.29 nM
B3	0.31 nM
B4	0.12 nM
B5	0.19 nM
B6	0.1 nM
B7	0.89 nM

Target: T2, VLP-hCLDN6 (human)
Assay: ELISA, coated VLP-hCLDN6, 10 ul antibody sample (second well), HRP-Protein A

Binder	OD450
B8	1.04
B9	1.57
B10	1.9
B11	1.46
B12	1.46
B13	1.72
B14	1.7
B15	1.7
B16	0.23
B17	1.57
B18	1.24
B19	1.34
B20	1.13
B21	1.4
B22	1.54
B23	1.41
B24	0.96
B25	1.47
B26	1.22
B27	1.13

Target: T2, VLP-hCLDN6 (human)
Assay: ELISA, coated VLP-hCLDN6, 10 ul antibody sample, HRP-Protein A

Binder	OD450
B8	0.89
B9	1.62
B10	2.05
B11	1.42
B12	1.37
B13	1.6
B14	1.69
B15	1.68
B16	0.22
B17	1.71
B18	1.26
B19	1.45
B20	1.18
B21	1.36
B22	1.41
B23	1.38
B24	1.12
B25	1.39
B26	1.27
B27	1.17

Target: T2, VLP-hCLDN6 (human)
Assay: ELISA, coated VLP-hCLDN6, 100 ul antibody sample (second well), HRP-Protein A

Binder	OD450
B8	1.61
B9	1.79
B10	2.45
B11	2.05
B12	1.91
B13	1.78
B14	2.24
B15	2.26
B16	0.99
B17	1.94
B18	1.71
B19	1.87
B20	1.51
B21	1.67
B22	1.8
B23	1.68
B24	1.65
B25	1.8
B26	1.88
B27	1.52

Target: T2, VLP-hCLDN6 (human)
Assay: ELISA, coated VLP-hCLDN6, 100 ul antibody sample, HRP-Protein A

Binder	OD450
B8	1.55
B9	1.7
B10	2.23
B11	1.82
B12	1.73
B13	1.93
B14	2.05
B15	1.95
B16	0.97
B17	1.84
B18	1.39
B19	1.94
B20	1.5
B21	1.76
B22	1.81
B23	1.81
B24	1.63
B25	1.78
B26	1.84
B27	1.68
